Measurements published in patent US20240000960A1 (CLEVELAND CLINIC FOUNDATION, published 2024).

Target: T1, CD6 (as used in surface plasmon resonance) (human, UniProt P30203 18-402, limits assumed)
T1 construct: also called human CD6
T1 sequence (looked up): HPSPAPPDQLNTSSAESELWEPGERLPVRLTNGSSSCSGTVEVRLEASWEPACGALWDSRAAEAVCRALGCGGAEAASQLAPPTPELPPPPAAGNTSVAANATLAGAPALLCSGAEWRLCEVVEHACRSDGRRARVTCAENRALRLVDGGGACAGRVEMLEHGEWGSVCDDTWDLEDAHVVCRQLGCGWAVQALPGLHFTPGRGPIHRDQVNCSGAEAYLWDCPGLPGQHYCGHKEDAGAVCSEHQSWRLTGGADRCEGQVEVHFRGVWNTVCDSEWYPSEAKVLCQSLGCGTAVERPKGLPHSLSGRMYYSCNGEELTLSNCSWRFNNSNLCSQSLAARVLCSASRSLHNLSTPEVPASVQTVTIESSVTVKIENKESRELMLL
Test: surface plasmon resonance

Kd: 0.01 nM
B1: mouse anti-human CD6 IgG (UMCD6) (antibody, V domains shown)
VH: QVQLKESGPGLVAPSQSLSITCTVSGFSLSRYSVHWVRQPPGKGLEWLGLIWGGGFTDYNSALKSRLSITKDNSKSQVFLKMNSLQTDDTAMYYCAREGVAYWGQGTLVSVSA
VL: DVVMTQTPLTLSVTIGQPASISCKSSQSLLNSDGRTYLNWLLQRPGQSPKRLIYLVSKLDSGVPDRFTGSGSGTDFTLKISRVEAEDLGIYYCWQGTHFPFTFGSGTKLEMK
notes: Mouse IgG; also called parent anti-CD6 mAb; parental mouse anti-CD6 IgG
